# Test: soluble on expression in E. coli; label from the status in PepcDB or PDB records
row,Sequence,soluble on expression in E. coli
1,HFNVLADTPSGLVPLHLRSPQVPAAQQMLNFPEKNKEKPVDLQNFGLRTDIYSKKTLAKSKGASAGREWTEQETLLLLEALEMYKDDWNKVSEHVGSRTQDECILHFLRLPIEDPYLENSDASLGPLAYQPVPFSQSGNPVMSTVAFLASVVDPRVASAAAKAALEEFSRVREEVPLELVEAHVKKVQEAARASGKVDPTYGLESSCIAGTGPDEPEKLEGAEEEKMEADPDGQQPEKAENKVENETDEGDKAQDGENEKNSEKEQDSEVSEDTKSEEKETEENKELTDTCKERESDTGKKKVEHEISEGNVATAAAAALASAATKAKHLAAVEERKIKSLVALLVETQMKKLEIKLRHFEELETIMDREKEALEQQRQQLLTERQNFHMEQLKYAELRARQQMEQQQHGQNPQQAHQHSGGPGLAPLGAAGHPGMMPHQQPPPYPLMHHQMPPPHPPQPGQIPGPGSMMPGQHMPGRMIPTVAANIHPSGSGPTPPGMPPMPGNILGPRVPLTAPNGMYPPPPQQQPPPPPPADGVPPPPAPGPPASAAP,soluble
2,HHHHHHATGDDHFYAEYLMPGLQRLLDPESAHRLAVRVTSLGLLPRATFQDSDMLEVKVLGHKFRNPVGIAAGFDKNGEAVDGLYKLGFGFVEVGSVTPQPQEGNPRPRVFRLPEDQAVINRYGFNSHGLSVVEHRLRARQQKQAQLTADGLPLGINLGKNKTSEDAAADYAEGVRTLGPLADYLVVNVSSPNTAGLRSLQGKTELRHLLSKVLQERDALKGTRKPAVLVKIAPDLTAQDKEDIASVARELGIDGLIVTNTTVSRPVGLQGALRSETGGLSGKPLRDLSTQTIREMYALTQGRIPIIGVGGVSSGQDALEKIQAGASLVQLYTALIFLGPPVVVRVKRELEALLKERGFTTVTDAIGADHRR,soluble
3,HHHHHHGHMRTNKDRLVRISVVGEIAPAKMRSPYSVTTEGTVRVIPVLGGITYNVKVGDSAYGWAGDHVEPGVSVMARRKEEEIPLMTLSCIGNEVIVMSGDAKGSRGFVTGKHGGVNHVLVHFEEEVLGKLMVGDKILIKAWGQGLKLLDHPDVKVMNIDPDLFEKLGIQEKNGKIHVPVVAKIPAHMMGSGIGASSSASTDYDIMASNPEDLGVADLKLGDIVAIQDHDNSYGVGKYRKGAVSIGVVVHSACVSAGHGPGVVVIMTGDESKILPEEVERANISDYLVR,soluble
4,HHHHHHMDLVEKVKELCLELEEENLAKAIERFITLTHGIEKTRGEAFAKASIYGFLEGILTTLKMKYSNEKIETLLNEVKTAREETEALLRKPRPPLLVDNDL,soluble
5,HHHHHHMPIQVLPPQLANQIAAGEVVERPASVVKELVENSLDAGATRIDIDIERGGAKLIRIRDNGCGIKKDELALALARHATSKIASLDDLEAIISLGFRGEALASISSVSRLTLTSRTAEQQEAWQAYAEGRDMNVTVKPAAHPVGTTLEVLDLFYNTPARRKFLRTEKTEFNHIDEIIRRIALARFDVTINLSHNGKIVRQYRAVPEGGQKERRLGAICGTAFLEQALAIEWQHGDLTLRGWVADPNHTTPALAEIQYCYVNGRMMRDRLINHAIRQACEDKLGADQQPAFVLYLEIDPHQVDVNVHPAKHEVRFHQSRLVHDFIYQGVLSVLQQQLETPLPLDDEPQPAPR,soluble
6,HHHHHHTNEAYLAHERRELEAKRNQLRDEVDRTKTHMQDEAANDPNWFDITAQLWEFSQELRNRDREEKLIKKIEQTLKKVENED,soluble
7,HHHHHSSGLVPRGSHMTNPAYFPQLSQLDVSGEMESTYEDIRLTLRVPWVAFGCRVLATFPGYLPLAWRRSAEALITRYAEQAADELRERSLLNIGPLPNLKERLYAAGFDDGEIEKVRRVLYAFNYGNPKYLLLITALSESMQMRPVGGAEVSSELRASIPKGHPKGMDPLLPLVDATKASTEVQGLLKRVADLHYHHGPASDFQALANWPKVLQIVTDEVLAPVARTEQYDAKSRELVTRARELVRGLPGSAGVQRSELMSMLTPNELAGLTGVLFMYQRFIADITISIIHITECLDGAEAASKSPFPI,soluble
8,HHQELCTKGDDALVTELECIRLRISPETNAAFDNAVQQLNCLNRACAYRKMCATNNLEQAMSVYFTNEQIKEIHDAATACDPEAHHEHDH,soluble
9,HMAKATTIKDAIRIFEERKSVVATEAEKVELHGMIPPIEKMDATLSTLKACKHLALSTNNIEKISSLSGMENLRILSLGRNLIKKIENLDAVADTLEELWISYNQIASLSGIEKLVNLRVLYMSNNKITNWGEIDKLAALDKLEDLLLAGNPLYNDYKENNATSEYRIEVVKRLPNLKKLDGMPVDVDEREQANVARGG,soluble
10,HPWQRASVWAEILPSILFRTDFTNAQDEPDEMSSKLHRRSSFQPAFQVGVAYRVSDHMGIEAHAGYQLGEAVYHLMEETSTWSIIKKRATVPYRGFEFAVGLQFYPFR,not soluble
11,IAQQTEETVVEVETVTGFGANDAILDIRSIDEQEDKPLKVEGVEVVSLPFYKLSTKFGDLDQSKTWLLWCERGVMSRLQALYLREQGFSNVKVYR,not soluble
12,IEDEVIYSKKRYKLKREIDKLFLDEEYFQIEPQLFEEYDEFTTINNKIPEESMVKVVNGKVMVLRADITTSIIKSLVPRWEDGLKLKLFYNSSIYKNKNTVGIKEIRQIGCEYLGEASVEADREVVKLALKILEKYNNNFILEVGSSKYIHGLLEELNLNKNCENQIKNLLYTKNTHELKVYIEELKIKHEVKELLSNILSLQGNLYNVIEKSNKFYCNNKMKQALEELKQVNNLIEECNFLDKARFDLSMITMLDYYEGIMFRGYYPNSYKEILSGGRYDSLTKEYGKEIPAIGFTLSVDELMKYVYK,not soluble
13,IEEVYEATLDAIQGALNCDRASILLFDEAGTMRFVAARGLSEHYQRAVDGHSPWITGANEPEPIFVENVDDAEFSRELKESIVGEGIAALGFFPLVTEGRLIGKFMTYYDRPHRFADSEIGMALTIARQLGFSIQRMRAEYARRQAEE,soluble
14,IEKNQIDMANGQELLISESLAVSQATTTFIDQLRILAPFGTDNTVPTFVFKEITPTQIRQIGADNAHLKFQMNQEGAQLDAIAFQMGPQADELAQGTADVAGQLSINEWNGRKKPQ,not soluble
15,IENYHVEEAENDLTQLANKVAVILENHEDQALARSITWELADNLTSIAIIQDEKNHWYSPNDKNRLSSITVEQIQHDKDLNKALKDHKKVSKRTGLSDTDTDNERLIVGVPYEKDGKKGMVFLSQSLLAVKDTTKHTTR,not soluble
16,ILKELENLSPEEAAHQKAVVETLLQEDPWRVAKMVKSYLQQHNIPQREVVDTTGLNQSHLSQHLNKGTPMKTQKRAALYTWYVRKQREVAQQFTHAGQGGLIEEPTGDELPTKKGRRNRFKWGPASQQILFQAYERQKNPSKEERETLVEECNRAECIQRGVSPSQAQGLGSNLVTEVRVYNWFANRRKEEAFR,soluble
17,INLPWYLSPIAIPVTQILSAVSPLPRYAPGHKPYFPKPFEDNPLSQSAGRYQWFRNLYTEKPELQVGGPSTRWVWQGLMAAKQCFLLTRQVKVPVLLVQAGNDRIVSNLAQKRFIEKLRKTNPHAALLSIEGAQHEILFETDQYRNQALDAIFRFMDDPTSSSDEKMQ,not soluble
18,ISAVIVGTAEDIYSRVLALMCQRKGAVSICLQHGALMGDEAFIPVFTTYQAVFGAYEAEWFIRKGCKPEQILVTGHPRFDQIFNRTPMDMSIFYRKLAFQPTKKIVLIATQPFSEDFYSGVLQGLSDQKQLQIIIKPHPWEIGKNKLDLYHEAAKKHQACRVIKKELELYDLLPYVDAAVTQTSTVGLEAMLFQKPVLIGKSSGNRSYPYYESLGDFMFDQPDELAHTLVEVLRSP,not soluble
19,ITERRQRQQRIEALHDTTRELMHVESREAAAELVVETARDLLGLPLSAVFLADESADALRPTAVTDQAQAIIDDHPTFSEGDSLVWEVFDSGEQRVFNDVSTHPNRYNPDTDVCSELLIPLGDHGVLIAASTDAAAFEDASVSLMRTLAANTEEALSRLDRQQELRTLTER,not soluble
20,ITLKYNYTVTLKDDGLYDGVFYDHYNDQLVTKISYNHETRHGNVNFRADWFNISRSPHTPGNDYNFNFWYSLMKETLEEINKNDSTKTTSLSLITGCYETGLLFGSYGYVETANGPLARYHTGDKRFTKMTHKGFPKVGMLTVKNTLWKDVKAYLGGFEYMGCSLAILDYQKMAKGKIPKDTTPTVKVTGNELEDGNMTLECTVNSFYPPDVITKWIESEHFKGEYKYVNGRYYPEWGRKSNYEPGEPGFPWNIKKDKDANTYSLTDLVRTTSKMSSQPVCVVFHDTLEAQVYTCSEGCNGELYDHLYRKTEEGEGGSHHHHHH,soluble
21,ITLNSEPKCINNIKSGQYERYDTNNTELNRVLGGGLVKGSITLISGAPGIGKSTLLLQICQDIALKYGKVLYVSGEESEHQIKMRGDRLGVTSANIYILAETNMESIERHVENIKPAFVIIDSIQTLYKDQITSAPGSVSQVRECANDIMRIAKTDNIPFFIVAHVTKQGELAGPRVLEHIVDTVLTFEGQRTEEFRILRTVKNRFGTTSEIGVFEMKEEGL,not soluble
22,IVGLRVGAAAEFALSNDGFYLAPGLAYTMRGAKMESLSETTTRLHYLQIPVNAGMRFSFADNMAISLEAGPYFAYGVAGTIKTKVAGVTASVDAFGDNGYNRFDLGLGLSAALSYDRYYVQIGYEHGLLNMLKDAPDKTSLRNHDFFVGLGVRF,not soluble
23,KDTIALVVSTLNNPFFVSLKDGAQKEADKLGYNLVVLDSQNNPAKELANVQDLTVRGTKILLINPTRSDAVGNAVKMANQANIPVITLDRQATKGEVVSHIASDNVLGGKIAGDYIAKKAGEGAKVIELQGIAGTSAARERGEGFQQAVAAHKFNVLASQPADFDRIKGLNVMQNLLTAHPDVQAVFAQNDEMALGALRALQTAGKSDVMVVGFDGTPDGEKAVNDGKLAATIAQLPDQIGAKGVETADKVLKGEKVQAKYPVDLKLVVKQ,soluble
24,KEKARAMRVNKRAPQMDWNRKREIFSNF,soluble
25,KEQILSSEQLARKMMLELGDKKQEHLVAIYMDTQNRIIEQRTIFIGTVRRSVAEPREILHYACKNMATSLIIIHNHPSGSPKPSESDLSFTKKIKRSCDHLGIVCLDHIIVGKNKYYSFREEADIL,soluble
26,KGDVDEKLLDKGIEAVLDQTDYVNGGFGSAPKFHHAKAVELLLTHHFFTGDEEVLKAAEITLDAMARGGIYDHLLGGFFRYSTDAKWVTPHYEKMLYDNAELLYLYSIAYALTGKRLYQKIADGIVEYYRKFGCSNEGGFYASQDADIGELDEGGYYLFSDRELKEILDEREFRIATLYYDIQGERKLPRIFLTEEEISKILGVSVEEVERAVNSARRKMLEFREQREMPYIDTTIYAGWNGLMIEALCMHHKVFGDNWSLEMAEKTANRLLKEFWDGRELLHTHNVEGLSEDYIFFARGLLALFEVTQRHEYLEKCFEIVDSAVEKFWDGEDGGFFD,not soluble
27,KGIFSWESALTATYNKNEILDLNSETPMFINQIGNSYVTMLKAGYPINVFYGYVTDGLFQNWGEVNRHATQPGAAPGDIRFRDLNNDGVINDEDRTILGNPNPNWFFSLSNNLSYKGWELSVFLQGVAGNKIYNANNVDNEGMAAAYNQTTAVLNRWTGEGTSYSMPRAIWGDPNQNCRVSDRFVENGSYLRLKNITLSYTLPKKWLQKIQLENARISFSCENVATITRYSGFDPEVDVNGIDSSRYPISRTFSMGLNFNF,not soluble
28,KGYDSHKIALAQSETEMRNLSHSLAEHATHTFQGADVVLDDIVSFMKWRPHPSPVFNERLRALADNLPQLSDVAILDADGQLTYASVKPVPALDNSDRSYFRYHRANDDHTLLITGPIQSRTSGVWVFVVSRRLETTDGKFFGVVVATIESEYFSTFYKTFDLGPGGSISLLHSDGRLLIQWPSLQTGRDMANMVLFQKALPRSPDGYYLTVSPFDGLTKYLAYRRVSRYPLVVTVARTEDSVLSGWREAVRSD,soluble

# Source: the DeepSol protein solubility set
